Results on 1 substance are retold here after patent publication US20150104450A1.

In assay [1] the target is cynomolgus monkey CD86 extracellular domain with FLAG 10xhis tag (cynomolgus monkey). Briefly: SPR (Biacore 2000), ratio of KD. In general terms: SPR reads the build-up and loss of mass on a sensor chip optically.
In assay [2] the target is human CD86 extracellular domain with FLAG 10xhis tag (human). Put plainly: SPR (Biacore 2000), ratio of KD.
Assay [3] addresses cynomolgus monkey CD86 extracellular domain with FLAG 10xhis tag (cynomolgus monkey). Put plainly: SPR (Biacore 2000), CTLA-4-Fc amine-coupled to CM5, ligand ECD as analyte, monovalent affinity.
The target of assay [4] is human CD86 extracellular domain with FLAG 10xhis tag (human). Described as above.

Sequence of human CD86 extracellular domain with FLAG 10xhis tag (human) (chain, as listed by the source limits assumed, form in doubt): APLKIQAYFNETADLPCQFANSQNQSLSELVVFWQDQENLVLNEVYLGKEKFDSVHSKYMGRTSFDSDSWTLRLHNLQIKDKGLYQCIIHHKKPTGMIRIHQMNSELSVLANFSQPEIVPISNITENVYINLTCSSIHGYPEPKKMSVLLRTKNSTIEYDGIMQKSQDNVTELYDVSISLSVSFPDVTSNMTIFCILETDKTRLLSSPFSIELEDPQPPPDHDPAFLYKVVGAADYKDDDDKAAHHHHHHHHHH
Sequence of cynomolgus monkey CD86 extracellular domain with FLAG 10xhis tag (cynomolgus monkey) (chain, as listed by the source limits assumed, form in doubt): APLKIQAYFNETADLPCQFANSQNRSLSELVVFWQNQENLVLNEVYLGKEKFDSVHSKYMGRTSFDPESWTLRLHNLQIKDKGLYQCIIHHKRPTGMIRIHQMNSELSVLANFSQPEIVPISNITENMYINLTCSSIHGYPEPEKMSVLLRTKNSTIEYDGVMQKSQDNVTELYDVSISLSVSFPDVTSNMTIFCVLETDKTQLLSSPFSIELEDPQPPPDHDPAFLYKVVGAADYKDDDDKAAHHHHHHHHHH

As usually defined, the Kd is the equilibrium constant for the complex coming apart. For the substance “wild type CTLA-4 (SEQ ID NO: 35) in Fc fusion format”, the fold-improvement in affinity over wild type CTLA-4 in Fc fusion format in assay [1] and in assay [2] was 1 fold in each case. Besides, the Kd in assay [3] amounted to 6.53 µM; in assay [4] it was 6.42 µM.
